Measurements reported in patent US20230303681A1.

What was measured:
mouse TMEM106B (mouse) [1] = molecular target: mouse TMEM106B (mouse) (UniProt Q80X71); test: FACS, HEK293 transfectants
mouse TMEM106B (mouse) [2] = molecular target: mouse TMEM106B (mouse) (UniProt Q80X71); test: FACS Neuro2a

fold-change over parental HEK293 (mouse TMEM106B (mouse) [1]): 1.97 fold | MFI (mouse TMEM106B (mouse) [2]): 325
B1: anti-TMEM106B antibody TM-4 (antibody, V domains shown)
VH: EVQVQQSGPVLVKPGASVKMSCKASGYTFTDYYMNWVKQSHGKNLEWIGVINPYNGGTSYHQKFKGKATLTVDKSSSTAYMELNSLTSEDSAVYYCARAATVVAGFDYWGQGTTLTVSS
VL: QAVVTQESALTTSPGETVTLTCRSSTGAVTTSNYANWVQEKPDHLFTGLIGGTNNRAPGVPARFSGSLIGDKAALTITGAQTEDEAIYFCVLWYSNHLVFGGGTKLTVL
